Source: patent publication US9266964
Where a chain is given by its changes, count along the chain named.

B1: M10-A03 (Fab, V domains shown)
VH: EVQLLESGGGLVQPGGSLRLSCAASGFTFSPYPMQWVRQAPGKGLEWVSSISSSGGMTEYADSVKGRFTISRDNSKNTLYLQMNSLRAEDTAVYYCARDDYGGKGGAFDIWGQGTMVTVSS
VL: DIQMTQSPSSLSASVGDRVTITCRASQRISFYLNWFQQKPGKAPNLLIYGASSLQSGVPSRFSGSGSGTDFTLTISSLQPKDFGTYYCQQTFSTPNTFGQGTKLEIK
notes: Fab fragment (E. coli TG1); printed HC runs into the start of CH1
B2: M12-B04 (Fab, V domains shown)
VH: EVQLLESGGGLVQPGGSLRLSCAASGFTFSLYSMYWVRQAPGKGLEWVSRIRPSGGGTVYADSVKGRFTISRDNSKNTLYLQMNSLRAEDTAVYYCARDPLYSSGDVWGQGTTVTVSS
VL: DIQMTQSPSSLSASVGDRVTITCRASQGIRNDLGWYQHKPGKAPKLLIYAASILQSGVPSRFSGTASGTDFTLTISSLQPEDFATYFCLQDYEYPLTFGGGTKLDIK
notes: as for B1
B3: M9-G08 (Fab, V domains shown)
VH: EVQLLESGGGLVQPGGSLRLSCAASGFTFSYYTMLWVRQAPGKGLEWVSSIYPSGGFTMYADSVKGRFTISRDNSKNTLYLQMNSLRAEDTAVYYCARVDTAMAMIDYWGQGTLVTVSS
VL: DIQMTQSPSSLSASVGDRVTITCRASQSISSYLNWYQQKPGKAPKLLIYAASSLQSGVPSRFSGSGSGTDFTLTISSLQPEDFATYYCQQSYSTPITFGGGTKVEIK
notes: as for B1
B4: M11-E06 (Fab, V domains shown)
VH: EVQLLESGGGLVQPGGSLRLSCAASGFTFSQYAMHWVRQAPGKGLEWVSSIYPSGGFTLYADSVKGRFTISRDNSKNTLYLQMNSLRAEDTAMYYCARGGWLAGGELLNWGQGTLVTVSS
VL: DIQMTQSPSSLSASIGDRVTISCRASRGIGTYLNWYQQHAGKAPKLLIRAASSLETGVPPRFSGSGSGTDFTLTISSLQSDDFATYYCQESFTNVYNFGQGTKLEIK
notes: as for B1
B5: M10-D11 (Fab, V domains shown)
VH: EVQLLESGGGLVQPGGSLRLSCAASGFTFSAYPMNWVRQAPGKGLEWVSRISSSGGNTSYADSVKGRFTISRDNSKNTLYLQMNSLRAEDTAVYYCALGYLGYWGQGTLVTVSS
VL: not shown
notes: as for B1
B6: M11-E04 (Fab, V domains shown)
VH: EVQLLESGGGLVQPGGSLRLSCAASGFTFSMYHMNWVRQAPGKGLEWVSGIVSSGGVTFYADSVKGRFTISRDNSKNTLYLQMNSLRAEDTAVYYCARITTVTTGGAFDIWGQGTMVTVSS
VL: DIQMTQSPSSLSASVGDRVTITCRASQSISIYLTWYQHRPGKAPNLLIYGAATLQTGVPSRFSGSGSGTDFTLTIRGLQPEDFATYYCQQTFSLPRTFGQGTKLEIK
notes: as for B1
B7: M10-A12 (Fab, V domains shown)
VH: EVQLLESGGGLVQPGGSLRLSCAASGFTFSLYLMHWVRQAPGKGLEWVSSIYSSGGFTTYADSVKGRFTISRDNSKNTLYLQMNSLRAEDTAVYYCARDTDYGMDVWGQGTTVTVSS
VL: DIQMTQSPLSLSAFVGDRVTITCRASRDISVYLNWYQLKSGKAPKLLIYGASSLQSGVPSRFSGSGSGTDFTLTITSLQPEDFATYYCQQSYSIPFTFGGGTKVETK
notes: as for B1
B8: M11-G09 (Fab, V domains shown)
VH: EVQLLESGGGLVQPGGSLRLSCAASGFTFSLYNMTWVRQAPGKGLEWVSYIYPSGGGTHYADSVKGRFTISRDNSKNTLYLQMNSLRAEDTAVYYCARDTGFWSADAFDIWGQGTMVTVSS
VL: DIQMTQSPSSLSASVGDRVTITCRTSQGINHYLNWYQQKPGKAPKILVFAASELQTGVPSRFSGTGSGTSYTLTITSLQPEDVATYYCQQTYTSPYTFGQGTKLEVK
notes: as for B1
B9: M10-E06 (Fab, V domains shown)
VH: EVQLLESGGGLVQPGGSLRLSCAASGFTFSLYRMFWVRQAPGKGLEWVSSIWSSGGPTMYADSVKGRFTISRDNSKNTLYLQMNSLRAEDTAVYYCAREYPSTYYFDYWGQGTLVTVSS
VL: DIQMTQSPSSLSASVGDRVTITCRASQSISTYLNWYQQKPGKAPKLLIYGASSLQSGVPSRFSGSGSGTDFTLTISSLQPEDFTIYYCQQSYSDPYTFGQGTKLDIK
notes: as for B1
B10: M12-A08 (Fab, V domains shown)
VH: EVQLLESGGGLVQPGGSLRLSCAASGFTFSWYYMGWVRQAPGKGLEWVSWIVSSGGLTLYADSVKGRFTISRDNSKNTLYLQMNSLRAEDTAMYYCARTTVTTGDAFDIWGQGTMVTVSS
VL: B9 VL with T31R, G50A, S53T, Q55E, S56T, S76T, S77T, T84V, D94T, D105E
notes: as for B1
B11: M10-B09 (Fab, V domains shown)
VH: EVQLLESGGGLVQPGGSLRLSCAASGFTFSWYEMSWVRQAPGKGLEWVSRIWPSGGVTMYADSVKGRFTISRDNSKNTLYLQMNSLRAEDTAVYYCTRTSITTVGMDVWGQGTTVTVSS
VL: DIQMTQSPSSLSASVGDGVTITCRASQSISTYLNWYQQRPGKAPKLLIYGASSLQSGVPSRFSGSGSGTDFTLTISSLQREDFATYYCQQSFSTPWTFGQGTRVEIK
notes: Fab fragment (E. coli TG1); printed HC runs into the start of CH1; The HC is printed with an amber codon 'q' (LqMNSL), written here as Q
B12: M9-H04 (Fab, V domains shown)
VH: EVQLLESGGGLVQPGGSLRLSCAASGFTFSAYTMWWVRQAPGKGLEWVSSIWPSGGSTFYADSVKGRFTISRDNSKNTLYLQMNSLRAEDTAVYYCARTYDSSAGEVDYWGQGTLVTVSS
VL: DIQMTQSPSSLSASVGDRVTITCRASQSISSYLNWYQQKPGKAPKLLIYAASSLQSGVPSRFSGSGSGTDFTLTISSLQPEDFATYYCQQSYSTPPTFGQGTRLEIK
notes: as for B1
B13: M9-F10 (Fab, V domains shown)
VH: EVQLLESGGGLVQPGGSLRLSCAASGFTFSDYDMEWVRQAPGKGLEWVSSISPSGGSTIYADSVKGRFTISRDNSKNTLYLQMNSLRAEDTAVYYCARQGLLTAFDIWGQGTMVTVSS
VL: DIQMTQSPSSLSASVGDRVTITCRASQSINTYLNWYQQKPGKAPKVLIHAASTLESGVPSRFSGSGSGTDFTLTISSLQPEDFATYYCQQSYSTPYTFGQGTKLEVR
notes: as for B1
B14: M9-H03 (Fab, V domains shown)
VH: EVQLLESGGGLVQPGGSLRLSCAASGFTFSWYSMGWVRQAPGKGLEWVSYIVPSGGYTMYADSVKGRFTISRDNSKNTLYLQMNSLRAEDTAVYYCARDPGVSYYYYGMDVWGQGTTVTVSS
VL: QYELTQAPSVSVAPGQTASITCSGDKLGNRYTSWYQQKPGQSPVLVIFQDNKRPSGIPERFSGSNSGNTATLTISGTQAMDEADYYCQALDSNTYVFGTGTKVTVL
notes: as for B1
B15: M11-G12 (Fab, V domains shown)
VH: EVQLLESGGGLVQPGGSLRLSCAASGFTFSQYPMNWVRQAPGKGLEWVSSISSSGGFTTYADSVKGRFTISRDNSKNTLYLQMNSLRAEDTAVYYCAREEQQGGFDYWGQGTLVTVSS
VL: DIQMTQSPSSLSAFVGDRVSITCRASQTISVYVNWYQHKSGQAPKLLIYGASSLQSGVPSRFSGSGSGTDFTLTISSLQPEDFATYFCQQSYSIPFTFGGGTDVQIR
notes: as for B1
B16: M9-H02 (Fab, V domains shown)
VH: EVQLLESGGGLVQPGGSLRLSCAASGFTFSAYMMIWVRQAPGKGLEWVSVIYPSGGVTMYADSVKGRFTISRDNSKNTLYLQMNSLRAEDTAVYYCARGTVGASDAFDIWGQGTMVTVSS
VL: DIQMTQSPSSLSASVGDRVIITCRASRSIATYLNWYQQKPGKAPNLLIFGASTLQSGVPSRFSGSGSGTDFTLTISDLQPEDFATYYCQQSFSDPYTFGQGTNLEMK
notes: as for B1
B17: M10-C11 (Fab, V domains shown)
VH: EVQLLESGGGLVQPGGSLRLSCAASGFTFSMYPMMWVRQAPGKGLEWVSYISPSGGMTDYADSVKGRFTISRDNSKNTLYLQMNSLRAEDMAVYYCARVAGSSDAFDIWGQGTMVTVSS
VL: DIQMTQSPSSLSASVGDRVTITCRASQSISIYLNWYQQKPEKAPKLLIFAASTLQSGVPSRFSGSGSGTDFTLTISNLQPEDFATYYCQQSHSIPPTFGLGTKVEVK
notes: as for B1
B18: M10-F09 (Fab, V domains shown)
VH: EVQLLESGGGLVQPGGSLRLSCAASGFTFSNYDMMWVRQAPGKGLEWVSYISPSGGFTRYADSVKGRFTISRDNSKNTLYLQMNSLRAEDTATYYCAKDIYYYNWGPSHYFDSWGQGTLVTVSS
VL: DIQMTQSPSSLSASVGDRVTITCRASQTIDDDLIWYQQKPGRAPKLLIYAASSLQSGVPSRFSGSGSGTDFTLTITSLQPEDFATYYCQQSYNIPRTFGQGTKLESK
notes: as for B1
B19: M11-E05 (Fab, V domains shown)
VH: EVQLLESGGGLVQPGGSLRLSCAASGFTFSWYTMGWVRQAPGKGLEWVSWIYFGGLTTYADSVKGRFTISRDNSKNTLYLQMNSLRAEDTAVYYCARLGGPLDAFDIWGQGTMVTVSS
VL: DIQMTQSPSSLSASVGDTVTITCRTSQTINNYLNWYQQRPGEAPKVLIYATHTLESGVPSRFSGSGSGTDFTLTIGSLQPEDFATYYCQQSFAFPYTFGQGTKVEIT
notes: as for B1
B20: M11-A10 (Fab, V domains shown)
VH: EVQLLESGGGLVQPGGSLRLSCAASGFTFSNYWMMWVRQAPGKGLEWVSGIGSSGGFTSYADSVKGRFTISRDNSKNTLYLQMNSLRAEDTAVYYCAKGSYSDYGVFESWGQGTLVTVSS
VL: DIQMTQSPSSLSASVGDRVAITCRASQSIDTYLNWYQQKPGKAPKLLIYDASNLEIGVPSRFSGSGSGTDFTFIINSLQPEDVATYYCQHYLYAPYSFGQGTKLEIK
notes: as for B1
B21: M11-E01 (Fab, V domains shown)
VH: EVQLLESGGGLVQPGGSLRLSCAASGFTFSTYEMYWVRQAPGKGLEWVSGIGSSGGMTMYADSVKGRFTISRDNSKNTLYLQMNSLRAEDTAMYYCAREQPGIAALQFWGQGTLVTVSS
VL: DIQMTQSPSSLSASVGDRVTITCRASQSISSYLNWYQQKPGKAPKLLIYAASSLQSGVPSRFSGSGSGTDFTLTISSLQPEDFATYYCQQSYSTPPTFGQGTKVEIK
notes: as for B1
B22: M10-G09 (Fab, V domains shown)
VH: EVQLLESGGGLVQPGGSLRLSCAASGFTFSQYGMQWVRQAPGKGLEWVSSIRSSGGATRYADSVKGRFTISRDNSKNTLYLQMNSLRAEDTAVYYCARDGYYDSSGYPDYWGQGTLVTVSS
VL: DIQMTQSPSSLSASVGDSVTITCRASQSISGYINWYQQKAGKAPKLLIYAASSLQSGVPSRFSGSGSGTHFTLTISSLQPEDFATYYCQQYVSYPFTFGPGTKVDIK
notes: as for B1

molecular target: T1, human plasma kallikrein (human, UniProt P03952 20-390; P03952 391-638); test: ELISA; signal on coated biotinylated human plasma kallikrein divided by signal on streptavidin; Fab
T1 construct: two disulfide-linked chains; also called pKal; human pKal
Text: Abbreviations used: "T/B" is the ELISA signal obtained using of the target (biotinylated plasma kallikrein) divided by the ELISA signal of the "background" (streptavidin); both of which were coated on microtiter plates. "nd" is not determined. The symbol "q" refers to the amber suppressible stop codon (TAG), which is translated as glutamine (Q) in strains of E. coli such as the TG1 cells that were used to express the Fab fragments.

T1 sequence (P03952 20-390, chain 1 of 2): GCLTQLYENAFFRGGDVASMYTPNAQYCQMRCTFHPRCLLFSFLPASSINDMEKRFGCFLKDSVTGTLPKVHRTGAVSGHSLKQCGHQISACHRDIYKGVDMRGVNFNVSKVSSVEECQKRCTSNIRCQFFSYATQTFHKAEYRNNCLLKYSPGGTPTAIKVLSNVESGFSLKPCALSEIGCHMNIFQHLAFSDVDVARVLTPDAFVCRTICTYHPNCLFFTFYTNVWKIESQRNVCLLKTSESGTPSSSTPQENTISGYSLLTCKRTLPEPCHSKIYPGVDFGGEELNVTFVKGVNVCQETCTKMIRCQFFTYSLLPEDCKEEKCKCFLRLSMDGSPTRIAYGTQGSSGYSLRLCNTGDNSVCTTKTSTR
T1 sequence (P03952 391-638, chain 2 of 2): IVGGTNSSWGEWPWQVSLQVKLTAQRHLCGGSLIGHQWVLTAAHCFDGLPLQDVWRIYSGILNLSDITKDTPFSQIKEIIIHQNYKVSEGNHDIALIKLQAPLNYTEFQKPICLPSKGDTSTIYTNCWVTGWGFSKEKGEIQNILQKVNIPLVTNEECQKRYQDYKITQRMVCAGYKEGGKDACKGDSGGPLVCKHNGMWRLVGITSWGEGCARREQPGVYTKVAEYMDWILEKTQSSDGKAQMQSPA

Row | Binder | Human pKal ELISA (T/B)
1 | B1 | 33.7 T/B (target signal / background signal)
2 | B2 | 18 T/B (target signal / background signal)
3 | B3 | 4.8 T/B (target signal / background signal)
4 | B4 | 12.6 T/B (target signal / background signal)
5 | B5 | 6.4 T/B (target signal / background signal)
6 | B6 | 43.2 T/B (target signal / background signal)
7 | B7 | 20.8 T/B (target signal / background signal)
8 | B8 | 23.6 T/B (target signal / background signal)
9 | B9 | 32.8 T/B (target signal / background signal)
10 | B10 | 40.4 T/B (target signal / background signal)
11 | B11 | 14.1 T/B (target signal / background signal)
12 | B12 | 16.1 T/B (target signal / background signal)
13 | B13 | 8.4 T/B (target signal / background signal)
14 | B14 | 4.4 T/B (target signal / background signal)
15 | B15 | 4.9 T/B (target signal / background signal)
16 | B16 | 3.5 T/B (target signal / background signal)
17 | B17 | 5.3 T/B (target signal / background signal)
18 | B18 | 4.8 T/B (target signal / background signal)
19 | B19 | 41.4 T/B (target signal / background signal)
20 | B20 | 25 T/B (target signal / background signal)
21 | B21 | 11.7 T/B (target signal / background signal)
22 | B22 | 7.1 T/B (target signal / background signal)
